Results from patent publication US20090047301A1.

What was measured:
[1] = biological target: HPV16 L2 in HPV16 L1/L2 capsids (pseudovirions, L1/L2 VLPs) (human papillomavirus 16 (HPV16)) (UniProt P03107); experiment: HPV16 L1/L2 VLP ELISA
[2] = biological target: HPV16 L2 in HPV16 L1/L2 capsids (pseudovirions, L1/L2 VLPs) (human papillomavirus 16 (HPV16)) (UniProt P03107); experiment: HPV16 L1/L2 VLP ELISA, undiluted hybridoma supernatant
[3] = biological target: HPV18 L2 in HPV18 pseudovirions (human papillomavirus 18 (HPV18)) (UniProt P06793)
[4] = biological target: HPV16 L2 in HPV16 L1/L2 capsids (pseudovirions, L1/L2 VLPs) (human papillomavirus 16 (HPV16)) (UniProt P03107)
[5] = biological target: HPV16 L2 in HPV16 L1/L2 capsids (pseudovirions, L1/L2 VLPs) (human papillomavirus 16 (HPV16)) (UniProt P03107); remark: listed apart in the source
[6] = biological target: full length HPV16 L2 protein (ELISA and Western blot antigen) (human papillomavirus 16 (HPV16)) (UniProt P03107); experiment: L2 protein ELISA, undiluted hybridoma supernatant

## RG-1 (antibody)
[1]
  ELISA titer (titer (1:x dilution)): 1.02e+06
[2]
  OD405 L1/L2 ELISA: 0.9 OD405
[3]
  neutralization of HPV18 pseudovirions, RG-1 ascites (titer (1:x dilution)): 25600
[4]
  neutralization of HPV16 pseudovirions, RG-1 ascites (titer (1:x dilution)): 205000
[5]
  HPV16 neutralization (undiluted hybridoma supernatant titrated) (titer (1:x dilution)): 1280
[6]
  OD405 L2 ELISA: 1.3 OD405
